Where no end group is shown, it is not given here.
Experiments:
PSMA Fab (006 PSMA Fab) [1] = biological target: T1, PSMA Fab (006 PSMA Fab) (biotinylated (site not stated)); assay: phage ELISA: clonal phage on biotinylated PSMA Fab captured on neutravidin plate, anti-M13 HRP detection
T1 construct: Captured as biotinylated PSMA Fab on neutravidin coated plates in the phage ELISA; also called Anti-PSMA Fab; anti-PSMA Fab

PSMA Fab (006 PSMA Fab) [2] = biological target: T1, PSMA Fab (006 PSMA Fab); assay: phage ELISA: clonal phage on biotinylated PSMA Fab captured on neutravidin plate, wells pre-incubated with PSMA antigen as competitor, anti-M13 HRP detection
Protocol: (§1) Clonal phage were harvested as crude supernatants and screened via standard ELISAs. […] Prior to the addition of clonal phage. wells were incubated with blocking buffer and PSMA antigen or blocking buffer alone. Without washing or aspirating, clonal phage supernatants were then added to the wells and incubated for a short time. Wells were then washed followed by detection of bound phage using a horse radish conjugated anti-M13 antibody.

PSMA Fab (006 PSMA Fab) [3] = biological target: T2, PSMA Fab (006 PSMA Fab) (biotinylated (site not stated)); assay: clonal phage ELISA on biotinylated PSMA Fab captured on neutravidin plate, blocking buffer alone; anti-M13 HRP detection
T2 construct: also called Anti-PSMA Fab; anti-PSMA Fab

PSMA Fab [4] = biological target: T3, PSMA Fab; assay: clonal phage ELISA; biotinylated PSMA Fab on neutravidin plate, wells pre-incubated with PSMA antigen as competitor; anti-M13 HRP detection;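 also: crude clonal phage supernatants added to antigen-treated wells without a wash, incubated briefly, then bound phage read out via horse radish–conjugated anti-M13 antibody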
T3 construct: also called Anti-PSMA Fab; 006 PSMA Fab
Protocol: as §1

PSMA Fab [5] = biological target: T3, PSMA Fab; assay: clonal phage ELISA; biotinylated PSMA Fab on neutravidin plate, blocking buffer alone; anti-M13 HRP detection;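 also: crude clonal phage supernatants added without washing to wells pretreated with blocking buffer with or without PSMA antigen, short incubation, then washed before detecting bound phage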
Protocol: as §1

PSMA Fab (006 PSMA Fab) [6] = biological target: T4, PSMA Fab (006 PSMA Fab); assay: phage ELISA; biotinylated PSMA Fab on neutravidin plate, clonal phage supernatant, anti-M13 HRP detection;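 also: wells preincubated with PSMA antigen in blocking buffer or with blocking buffer only before clonal phage were added for a short incubation, then bound phage detected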
T4 construct: also called Anti-PSMA Fab; anti-PSMA Fab
Protocol: as §1

PSMA Fab (006 PSMA Fab) [7] = biological target: T4, PSMA Fab (006 PSMA Fab); assay: phage ELISA; biotinylated PSMA Fab on neutravidin plate pre-incubated with PSMA antigen as competitor, anti-M13 HRP detection;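 also: crude clonal phage supernatants tested, compared against control wells pre-incubated with blocking buffer only, without PSMA antigen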
Protocol: as §1

ESPICKPSWMCSGL [Phage-3718] was tested, and the “Phage binding ELISA signal, Anti-PSMA Fab” value (PSMA Fab (006 PSMA Fab) [1]) was 1.42 and the “Phage binding ELISA signal, Anti-PSMA Fab in presence of PSMA” value (“Phage binding ELISA signal … of PSMA” below) (PSMA Fab (006 PSMA Fab) [2]) was 0.0616.

B1: Phage-3768 (peptide, not shown: large carriers)
peptide: SEPVCTPMWMCTGI
notes: Clonal phage of the peptide-180 library, tested as crude phage supernatant
With B1 the “Phage binding ELISA signal, Anti-PSMA Fab” value (PSMA Fab (006 PSMA Fab) [3]) was 1.35.

In the case of EAKVCKPAWMCDGL [Phage-3754], the “Phage binding ELISA signal, Anti-PSMA Fab with PSMA antigen” value (PSMA Fab [4]) is reported as 0.077 and the “Phage binding ELISA signal, Anti-PSMA Fab” value (PSMA Fab [5]) is reported as 1.37.

With QSVMCRPAWMCEGF [Phage-3748] the “Phage binding ELISA signal, Anti-PSMA Fab with PSMA antigen” value (PSMA Fab [4]) was 0.0813 and the “Phage binding ELISA signal, Anti-PSMA Fab” value (PSMA Fab [5]) was 1.38.

B2: Phage-3758 (peptide, not shown: large carriers)
peptide: YETVCKPLWMCTGF
modifications: cysteine pairing not given here; also: displayed on phage as pIII fusion
notes: as for B1
For B2, the “Phage binding ELISA signal, Anti-PSMA Fab” value (PSMA Fab (006 PSMA Fab) [3]) was 1.36.

B3: Phage-3771 (peptide, not shown: large carriers)
peptide: GNIWCEPAWMCVGF
notes: as for B1
For B3, the “Phage binding ELISA signal, Anti-PSMA Fab” value (PSMA Fab (006 PSMA Fab) [3]) was 1.34.

For VHRMCEPKWMCEGF [Phage-3773], the “Phage binding ELISA signal, Anti-PSMA Fab” value (PSMA Fab (006 PSMA Fab) [6]) was 1.33 and the “Phage binding ELISA signal … of PSMA” value (PSMA Fab (006 PSMA Fab) [7]) was 0.0695.

GENWCVPQWMCDGF [Phage-3721] was tested, and the “Phage binding ELISA signal, Anti-PSMA Fab” value (PSMA Fab (006 PSMA Fab) [1]) was 1.41 and the “Phage binding ELISA signal … of PSMA” value (PSMA Fab (006 PSMA Fab) [2]) was 0.139.

With WEGFCVPTWMCDGF [Phage-3774] the “Phage binding ELISA signal, Anti-PSMA Fab” value (PSMA Fab (006 PSMA Fab) [6]) was 1.33 and the “Phage binding ELISA signal … of PSMA” value (PSMA Fab (006 PSMA Fab) [7]) was 0.0864.

With GLRMCEPMWMCQGF (cysteine pairing not given here; also: displayed on phage as pIII fusion) [Phage-3772] the “Phage binding ELISA signal, Anti-PSMA Fab” value (PSMA Fab (006 PSMA Fab) [6]) was 1.34 and the “Phage binding ELISA signal … of PSMA” value (PSMA Fab (006 PSMA Fab) [7]) was 0.0749.

For EPRACVPFWMCLGF [Phage-3720], the “Phage binding ELISA signal, Anti-PSMA Fab” value (PSMA Fab (006 PSMA Fab) [1]) was 1.42 and the “Phage binding ELISA signal … of PSMA” value (PSMA Fab (006 PSMA Fab) [2]) was 0.0796.

B4: Phage-3767 (peptide, not shown: large carriers)
peptide: VVRVCEPSWMCAGF
modifications: cysteine pairing not given here; also: displayed on phage as pIII fusion
notes: as for B1
B4 was tested, and the “Phage binding ELISA signal, Anti-PSMA Fab” value (PSMA Fab (006 PSMA Fab) [3]) was 1.35.

With IDRHCVPRWMCDGL [Phage-3727] the “Phage binding ELISA signal, Anti-PSMA Fab” value (PSMA Fab (006 PSMA Fab) [1]) was 1.41 and the “Phage binding ELISA signal … of PSMA” value (PSMA Fab (006 PSMA Fab) [2]) was 0.0751.

With VPALCVPNWMCSGL [Phage-3749] the “Phage binding ELISA signal, Anti-PSMA Fab with PSMA antigen” value (PSMA Fab [4]) was 0.0565 and the “Phage binding ELISA signal, Anti-PSMA Fab” value (PSMA Fab [5]) was 1.38.

B5: Phage-3766 (peptide, not shown: large carriers)
peptide: LYGVCVPEWMCHGF
notes: as for B1
In the case of B5, the “Phage binding ELISA signal, Anti-PSMA Fab” value (PSMA Fab (006 PSMA Fab) [3]) is reported as 1.35.

B6: Phage-3763 (peptide, not shown: large carriers)
peptide: DQRECIPHWMCAGF
modifications: cysteine pairing not given here; also: displayed on phage as pIII fusion
notes: as for B1
B6 was tested, and the “Phage binding ELISA signal, Anti-PSMA Fab” value (PSMA Fab (006 PSMA Fab) [3]) was 1.36.

VMPRCEPIWMCRGF [Phage-3746] was tested, and the “Phage binding ELISA signal, Anti-PSMA Fab with PSMA antigen” value (PSMA Fab [4]) was 0.0701 and the “Phage binding ELISA signal, Anti-PSMA Fab” value (PSMA Fab [5]) was 1.38.

B7: Phage-3762 (peptide, not shown: large carriers)
peptide: LVHLCKPPWMCHGF
notes: as for B1
In the case of B7, the “Phage binding ELISA signal, Anti-PSMA Fab” value (PSMA Fab (006 PSMA Fab) [3]) is reported as 1.36.

In the case of SEALCVPKWMCHGF [Phage-3719], the “Phage binding ELISA signal, Anti-PSMA Fab” value (PSMA Fab (006 PSMA Fab) [1]) is reported as 1.42 and the “Phage binding ELISA signal … of PSMA” value (PSMA Fab (006 PSMA Fab) [2]) is reported as 0.0994.

For DVLMCTPRWMCDGF [Phage-3725], the “Phage binding ELISA signal, Anti-PSMA Fab” value (PSMA Fab (006 PSMA Fab) [1]) was 1.41 and the “Phage binding ELISA signal … of PSMA” value (PSMA Fab (006 PSMA Fab) [2]) was 0.0822.

ESRLCVPTWMCTWL [Phage-3728] was tested, and the “Phage binding ELISA signal, Anti-PSMA Fab” value (PSMA Fab (006 PSMA Fab) [1]) was 1.41 and the “Phage binding ELISA signal … of PSMA” value (PSMA Fab (006 PSMA Fab) [2]) was 0.0946.

B8: Phage-3765 (peptide, not shown: large carriers)
peptide: MVIECRPEWMCVGF
notes: as for B1
With B8 the “Phage binding ELISA signal, Anti-PSMA Fab” value (PSMA Fab (006 PSMA Fab) [3]) was 1.35.

For FELYCVPAWMCSGF [Phage-3753], the “Phage binding ELISA signal, Anti-PSMA Fab with PSMA antigen” value (PSMA Fab [4]) was 0.16 and the “Phage binding ELISA signal, Anti-PSMA Fab” value (PSMA Fab [5]) was 1.37.

B9: Phage-3760 (peptide, not shown: large carriers)
peptide: VLPSCIPSWMCNGF
notes: as for B1
B9 was tested, and the “Phage binding ELISA signal, Anti-PSMA Fab” value (PSMA Fab (006 PSMA Fab) [3]) was 1.36.

With MEPVCLPEWMCWGF [Phage-3747] the “Phage binding ELISA signal, Anti-PSMA Fab with PSMA antigen” value (PSMA Fab [4]) was 0.0902 and the “Phage binding ELISA signal, Anti-PSMA Fab” value (PSMA Fab [5]) was 1.38.

B10: Phage-3761 (peptide, not shown: large carriers)
peptide: EVVACVPEWMCVGF
notes: as for B1
B10 was tested, and the “Phage binding ELISA signal, Anti-PSMA Fab” value (PSMA Fab (006 PSMA Fab) [3]) was 1.36.

With EEMMCKPDWMCYGF [Phage-3755] the “Phage binding ELISA signal, Anti-PSMA Fab with PSMA antigen” value (PSMA Fab [4]) was 0.109 and the “Phage binding ELISA signal, Anti-PSMA Fab” value (PSMA Fab [5]) was 1.37.

In the case of ETPRCVPWWMCIDI [Phage-3751], the “Phage binding ELISA signal, Anti-PSMA Fab with PSMA antigen” value (PSMA Fab [4]) is reported as 0.0731 and the “Phage binding ELISA signal, Anti-PSMA Fab” value (PSMA Fab [5]) is reported as 1.37.

In the case of WIKECVPDWMCSGF [Phage-3745], the “Phage binding ELISA signal, Anti-PSMA Fab with PSMA antigen” value (PSMA Fab [4]) is reported as 0.0803 and the “Phage binding ELISA signal, Anti-PSMA Fab” value (PSMA Fab [5]) is reported as 1.38.

In the case of EQPACVPKWMCIGF [Phage-3750], the “Phage binding ELISA signal, Anti-PSMA Fab with PSMA antigen” value (PSMA Fab [4]) is reported as 0.0893 and the “Phage binding ELISA signal, Anti-PSMA Fab” value (PSMA Fab [5]) is reported as 1.38.

B11: Phage-3764 (peptide, not shown: large carriers)
peptide: ENRMCIPEWMCQAS
notes: as for B1
B11 was tested, and the “Phage binding ELISA signal, Anti-PSMA Fab” value (PSMA Fab (006 PSMA Fab) [3]) was 1.36.

B12: Phage-3770 (peptide, not shown: large carriers)
peptide: TTPMCVPAWMCSGM
notes: as for B1
For B12, the “Phage binding ELISA signal, Anti-PSMA Fab” value (PSMA Fab (006 PSMA Fab) [3]) was 1.34.

For TIMYCKPTWMCTGF [Phage-3757], the “Phage binding ELISA signal, Anti-PSMA Fab with PSMA antigen” value (PSMA Fab [4]) was 0.0727 and the “Phage binding ELISA signal, Anti-PSMA Fab” value (PSMA Fab [5]) was 1.37.

B13: Phage-3759 (peptide, not shown: large carriers)
peptide: DVGMCRPKWMCDGF
notes: as for B1
In the case of B13, the “Phage binding ELISA signal, Anti-PSMA Fab” value (PSMA Fab (006 PSMA Fab) [3]) is reported as 1.36.

With YHKECIPPWMCMGF [Phage-3756] the “Phage binding ELISA signal, Anti-PSMA Fab with PSMA antigen” value (PSMA Fab [4]) was 0.0922 and the “Phage binding ELISA signal, Anti-PSMA Fab” value (PSMA Fab [5]) was 1.37.

For EEKLCKPAWMCEWF [Phage-3724], the “Phage binding ELISA signal, Anti-PSMA Fab” value (PSMA Fab (006 PSMA Fab) [1]) was 1.41 and the “Phage binding ELISA signal … of PSMA” value (PSMA Fab (006 PSMA Fab) [2]) was 0.096.

B14: Phage-3769 (peptide, not shown: large carriers)
peptide: GSPFCVPLWMCEGF
notes: as for B1
B14 was tested, and the “Phage binding ELISA signal, Anti-PSMA Fab” value (PSMA Fab (006 PSMA Fab) [3]) was 1.35.

AYMKCSPAWMCEGF [Phage-3722] was tested, and the “Phage binding ELISA signal, Anti-PSMA Fab” value (PSMA Fab (006 PSMA Fab) [1]) was 1.41 and the “Phage binding ELISA signal … of PSMA” value (PSMA Fab (006 PSMA Fab) [2]) was 0.0811.

With TLFACVPAWMCDGF [Phage-3726] the “Phage binding ELISA signal, Anti-PSMA Fab” value (PSMA Fab (006 PSMA Fab) [1]) was 1.41 and the “Phage binding ELISA signal … of PSMA” value (PSMA Fab (006 PSMA Fab) [2]) was 0.0757.

For PGKVCEPIWMCLGF (cysteine pairing not given here; also: displayed on phage as pIII fusion) [Phage-3744], the “Phage binding ELISA signal, Anti-PSMA Fab with PSMA antigen” value (PSMA Fab [4]) was 0.124 and the “Phage binding ELISA signal, Anti-PSMA Fab” value (PSMA Fab [5]) was 1.38.

With NSSLCIPSWMCSGF [Phage-3752] the “Phage binding ELISA signal, Anti-PSMA Fab with PSMA antigen” value (PSMA Fab [4]) was 0.0738 and the “Phage binding ELISA signal, Anti-PSMA Fab” value (PSMA Fab [5]) was 1.37.

With PYAVCVPKWMCSGF [Phage-3723] the “Phage binding ELISA signal, Anti-PSMA Fab” value (PSMA Fab (006 PSMA Fab) [1]) was 1.41 and the “Phage binding ELISA signal … of PSMA” value (PSMA Fab (006 PSMA Fab) [2]) was 0.0805.

— patent publication US20260242478A1 (published 2026)
